Measured values: patent US20210079107A1 (Novartis, published 2021)
Values joined by “and” are separate entries in the source; they are usually repeats but may differ in a detail not shown here. Equal values may be shown once.

B1: HCD122 (wild-type IgG1 version of CFZ533) (antibody)
heavy: not shown
light: DIVMTQSPLSLTVTPGEPASISCRSSQSLLYSNGYNYLDWYLQKPGQSPQVLISLGSNRASGVPDRFSGSGSGTDFTLKISRVEAEDVGVYYCMQARQTPFTFGPGTKVDIRRTVAAPSVFIFPPSDEQLKSGTASVVCLLNNFYPREAKVQWKVDNALQSGNSQESVTEQDSKDSTYSLSSTLTLSKADYEKHKVYACEVTHQGLSSPVTKSFNRGEC
notes: it calls it the parental antibody and the wild-type IgG1 version of CFZ533 (N297A IgG1); It is built here as the CFZ533 chains with Asn in place of the Ala of N297A; 297 is a constant-region number; also called parental antibody
B2: CFZ533 (antibody, human IgG1, kappa, N297A)
heavy: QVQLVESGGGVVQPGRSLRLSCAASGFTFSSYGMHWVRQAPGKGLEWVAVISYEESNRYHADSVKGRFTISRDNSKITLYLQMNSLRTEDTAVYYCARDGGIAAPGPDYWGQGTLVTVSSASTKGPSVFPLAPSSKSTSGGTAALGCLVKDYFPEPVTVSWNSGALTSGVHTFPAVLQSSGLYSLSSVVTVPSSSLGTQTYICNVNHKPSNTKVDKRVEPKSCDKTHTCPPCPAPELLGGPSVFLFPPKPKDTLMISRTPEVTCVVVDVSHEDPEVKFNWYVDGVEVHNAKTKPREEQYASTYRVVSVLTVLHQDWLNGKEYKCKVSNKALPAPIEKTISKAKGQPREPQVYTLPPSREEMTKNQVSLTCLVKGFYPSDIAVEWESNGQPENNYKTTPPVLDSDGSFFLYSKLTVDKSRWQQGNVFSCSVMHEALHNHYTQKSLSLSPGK
light: DIVMTQSPLSLTVTPGEPASISCRSSQSLLYSNGYNYLDWYLQKPGQSPQVLISLGSNRASGVPDRFSGSGSGTDFTLKISRVEAEDVGVYYCMQARQTPFTFGPGTKVDIRRTVAAPSVFIFPPSDEQLKSGTASVVCLLNNFYPREAKVQWKVDNALQSGNSQESVTEQDSKDSTYSLSSTLTLSKADYEKHKVYACEVTHQGLSSPVTKSFNRGEC
notes: In the receptor occupancy and internalisation assays it was labelled with AlexaFluor 488; also called mAb1; iscalimab

Columns and labels:
[1] = target: T1, recombinant human CD40 (human, UniProt P25942 21-193); test: SPR (Biacore T100), antibody captured on Protein A, CD40 as analyte, 25 °C, 1:1 model
T1 construct: Soluble analyte in SPR; also called CD40 antigen
T1 sequence (P25942 21-193 limits assumed): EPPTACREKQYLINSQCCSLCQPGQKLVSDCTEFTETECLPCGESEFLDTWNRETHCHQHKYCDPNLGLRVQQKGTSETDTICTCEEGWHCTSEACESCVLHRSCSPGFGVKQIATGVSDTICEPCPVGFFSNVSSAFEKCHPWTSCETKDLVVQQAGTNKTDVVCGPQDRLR
Excerpt: A typical binding analysis cycle consisted of three steps: (i) capture of the antibody via ProteinA immobilized on the chip surface, (ii) binding of CD40 antigen to the captured anti-CD40 antibody, and (iii) regeneration of the ProteinA surface. To determine the kinetic rate constants of the antigen-antibody binding interactions, binding data were processed, double referenced with responses from blank injections. The binding curves were fitted locally using the 1:1 interaction model of the Biacore T100 Evaluation software to determine kinetic rate constants. The value for the equilibrium dissociation constant (KD) was calculated as the ratio of the rate constants kd/ka. All binding measurements were performed in two independent experiments.

[2] = target: T2, human FcγRIIIA 158F extracellular domain (human, UniProt P08637 17-199, site directed biotinylated with BirA (Avi tag)); test: SPR (T100), biotinylated receptor on streptavidin chip, equilibrium binding, 1:1 model
T2 construct: range 17-199; not shown: 4-amino acid purification tag (4APP; Novartis)
T2 sequence (P08637 other isoform, or with tags, fused parts or gaps): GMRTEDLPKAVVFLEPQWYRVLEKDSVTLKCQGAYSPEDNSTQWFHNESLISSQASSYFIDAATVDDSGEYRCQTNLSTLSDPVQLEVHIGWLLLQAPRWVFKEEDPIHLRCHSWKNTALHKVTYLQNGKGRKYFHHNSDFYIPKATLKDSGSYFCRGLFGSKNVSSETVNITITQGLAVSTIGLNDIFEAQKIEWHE
Excerpt: (§1) Extracellular domains of human FcγRIIIA tagged with a 4-amino acid purification tag (4APP; Novartis) and an Avi biotinylation tag ([…]; Avidity) were synthesized by Geneart: human FcγRIIIA (CD16a) 158V (Uniprot: P08637, 17-199), human FcγRIIIA 158F (Uniprot: P08637, 17-199), expressed in HEK293 cells and purified with anti-4APP affinity chromatography. Receptors were site directed biotinylated with BirA (Avidity), bound to streptavidin sensor chips (General Electric), and the equilibrium-binding levels of the different Abs were analyzed by surface plasmon resonance (T100, General Electric) as described (Warncke et al. 2012). Equilibrium dissociation constants (KD) were calculated by a 1:1 model.

[3] = target: T3, cynomolgus monkey CD40 on CD20+ B cells (cynomolgus, UniProt G7PG38 21-278); test: cell-based or functional assay
[4] = target: T4, rhesus monkey CD40 on CD20+ B cells (rhesus, UniProt F6SNI1 21-278); test: cell-based or functional assay
[5] = target: T5, human CD40 on cells (CD20+ B cells of whole blood/PBMCs, tonsil B cells, moDCs, RI-1 B cell line) (human, UniProt P25942 21-277); test: cell-based or functional assay
T5 sequence (P25942 21-277 limits assumed): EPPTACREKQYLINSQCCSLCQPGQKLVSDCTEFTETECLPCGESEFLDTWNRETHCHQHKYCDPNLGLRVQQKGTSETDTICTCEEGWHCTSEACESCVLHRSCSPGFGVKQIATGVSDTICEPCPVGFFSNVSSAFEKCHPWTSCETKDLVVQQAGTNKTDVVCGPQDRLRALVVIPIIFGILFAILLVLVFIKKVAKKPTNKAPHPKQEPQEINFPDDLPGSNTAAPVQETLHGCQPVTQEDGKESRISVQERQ

[6] = target: T5, human CD40 on cells (CD20+ B cells of …); test: flow cytometry, CD40 occupancy by CFZ533 (MFI EC50 on CD20+ cells), human, n = 4; human CD20+ cells, n = 4
[7] = target: T3, cynomolgus monkey CD40 on CD20+ B cells; test: flow cytometry, CD40 occupancy by CFZ533 (MFI EC50 on CD20+ cells), cynomolgus, n = 4
[8] = target: T5, human CD40 on cells (CD20+ B cells of …); test: flow cytometry, CD40 occupancy by CFZ533 (MFI EC50 on CD20+ cells), human, n = 4
[9] = target: T5, human CD40 on cells (CD20+ B cells of …); test: cell-based or functional assay; remark: listed apart in the source
[10] = target: T4, rhesus monkey CD40 on CD20+ B cells; test: flow cytometry, CD40 occupancy by CFZ533 (MFI EC50 on CD20+ cells), rhesus, n = 6
[11] = target: T5, human CD40 on cells (CD20+ B cells of …); test: cell-based or functional assay; remark: listed apart in the source
[12] = target: T2, human FcγRIIIA 158F extracellular domain; test: SPR, biotinylated receptor on streptavidin chip, equilibrium binding
Excerpt: as §1

[13] = target: T6, human FcγRIIIA (CD16a) 158V extracellular domain (human, UniProt P08637 17-199, site directed biotinylated with BirA (Avi tag)); test: as above
T6 construct: range 17-199; 158 is the usual mature numbering of the V/F allotype; also called Human FcγRIIIA 158V; not shown: 4-amino acid purification tag (4APP; Novartis)
T6 sequence (P08637 other isoform, or with tags, fused parts or gaps): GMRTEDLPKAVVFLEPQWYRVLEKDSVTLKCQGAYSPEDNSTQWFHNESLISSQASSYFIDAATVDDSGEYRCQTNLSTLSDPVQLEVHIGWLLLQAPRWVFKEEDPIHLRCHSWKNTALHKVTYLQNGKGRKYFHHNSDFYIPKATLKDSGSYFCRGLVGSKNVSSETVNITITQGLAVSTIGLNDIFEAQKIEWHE
Excerpt: as §1

| Binder | Kd [1] [nM] | koff [1] [s⁻¹] | kon [1] [M⁻¹ s⁻¹] | Ka [2] [M⁻¹] | Inhibition of rCD154-induced proliferation (IC50 PBMCs) [3] [µg/mL] | Inhibition of rCD154-induced proliferation (IC50 PBMCs) [4] [µg/mL] | Inhibition of rCD154-induced proliferation (IC50 PBMCs) [5] [µg/mL] | EC50 [6] [nM] | EC50 [7] [µg/mL] | EC50 [8] [µg/mL] | IC50 (read off the curve): rCD154-induced CD69 expression on CD20pos B cells, human whole blood [9] [µg/mL] | EC50 [10] [µg/mL] | IC50, rCD154-induced TNF production by primary monocyte-derived dendritic cells (moDCs) [11] | IC50, rCD154-induced proliferation of human whole blood cultures [11] | IC50, rCD154-induced proliferation of purified tonsillar B cells [11] | binding result [12] | binding result [13] |
| --- | --- | --- | --- | --- | --- | --- | --- | --- | --- | --- | --- | --- | --- | --- | --- | --- | --- |
| B1 | 0.467 | 0.000126 | 284000 | 699000 | – | – | – | – | – | – | – | – | – | – | – | – | – |
| B2 | 0.305 | 9.3e-05 | 313000 | – | 0.01 | 0.026 | 0.017 | 1.49 | 0.2 | 0.22 | ~0.1 | 0.22 | 0.04 µg/ml and 0.27 nM | 0.024 µg/ml and 0.16 nM | 0.47 nM and 0.071 µg/ml | no binding | no binding |
